Laboratory results taken from paper PMC11344771.

How the values were obtained:
[1] = target: BR-GBD fused to GFP (BR-GBD_(GFP-His)) (Rattus norvegicus) (UniProt O08816); test: pull-down; GFP-Trap agarose, BR-GBD_(GFP-His) as bait, equimolar SemDΔAPHHis and Cdc42_(GppNHp) added simultaneously; immunoblot, normalised Elution:FT ratio
[2] = target: N-WASP BR-GBD_(142-273) (Rattus norvegicus) (UniProt O08816); test: SEC-SAXS; Superdex200 increase 10/300 GL, PBS pH 8.5 + 3 % glycerol, 20 °C; 8 mg/ml SemDΔAPH, 10 mg/ml BR-GBD, 8 mg/ml SemDΔAPH + BR-GBD, 3.3 mg/l SemDΔAPH + SNX9-SH3
[3] = target: BR-GBD fused to GFP (BR-GBD_(GFP-His)) (Rattus norvegicus) (UniProt O08816); test: pull-down; GFP-Trap agarose, BR-GBD_(GFP-His) or GFP alone as bait, equimolar test protein, 5 min RT then 30 min 4 °C, washed 6x with 10 mM Tris-HCl, 200 mM NaCl, pH 8.5; immunoblot, Elution:FT ratio normalised to the bait
[4] = target: rhodamine-labelled SemD (SemD^Rhod) (Chlamydia pneumoniae); test: recruitment to giant unilamellar vesicles (confocal microscopy); PS-containing GUVs with bound SemD^Rhod or mutSemD^Rhod (1 µg) and GFP-fused partner (1 µg) in PBS, room temperature, imaged 5-20 min; fluorescence intensity ratio of GUV perimeter to background
SNX9-SH3GFP = test: GUV membrane recruitment assay, confocal fluorescence quantification; conditions: PS-containing GUVs, read off a plot

Chain of BR-GBD fused to GFP (BR-GBD_(GFP-His)) (Rattus norvegicus) (O08816 142-273): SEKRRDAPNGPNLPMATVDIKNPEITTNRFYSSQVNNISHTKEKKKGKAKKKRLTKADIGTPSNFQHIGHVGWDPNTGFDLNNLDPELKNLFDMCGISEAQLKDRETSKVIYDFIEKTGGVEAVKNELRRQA
Chain of BR-GBDΔGFP (lacking the BR domain) (O08816 other isoform, or with tags, fused parts or gaps mutant): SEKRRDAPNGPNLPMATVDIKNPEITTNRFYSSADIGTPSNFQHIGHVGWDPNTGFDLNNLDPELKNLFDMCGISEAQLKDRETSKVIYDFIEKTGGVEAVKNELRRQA
Chain of BR-GBD fused to GFP (BR-GBD_(GFP-His)) (O08816 142-273): as the sequence (O08816 142-273) above
Chain of N-WASP BR-GBD_(142-273) (Rattus norvegicus) (O08816 142-273): as above

SemDΔAPH_(67-382) (domain or fragment)
normalised Elution:FT ratio (with equimolar Cdc42 (GppNHp)) [1]: 100%
stoichiometry N [2]: 1
normalised Elution:FT ratio [3]: 100%

BR-GBDΔGFP (lacking the BR domain) (from UniProt O08816 142-273) (domain or fragment)
fold lower fluorescence intensity ratio than BR-GBDGFP (after 20 min) [4]: > 18 fold

rhodamine-labelled SemD (SemD^Rhod) R91V; P92A; R94V; P95A; P97V; P98A; P99V; P100A; R117V; P119A; P121V; P122A
response (SNX9-SH3GFP; 5 min, parent: est. 950): 1.1
response (SNX9-SH3GFP; 20 min, parent: est. 830): 1.1

BR-GBD fused to GFP (BR-GBD_(GFP-His)) (from UniProt O08816 142-273) (domain or fragment)
fluorescence intensity ratio (GUV perimeter to background) [4]: 44.5 fold
